Measurements: US20240285784A1, “PEPTIDIC CONJUGATES OF SN38 USEFUL IN THE TREATMENT OF CANCER” (FUNDACIÓ INSTITUT DE RECERCA BIOMÈDICA (IRB BARCELONA), priority 2020, published 2024)
*1 amine or outer side, *2 acyl side, *3 side chain or, on linkers, in order; H or OH if unused. Where a SMILES comes first, the peptide text is derived from it. Bridges are numbered along the chain shown (N, C = ends). [ ]: non-standard residue; d: D form. The star is where a group is joined. ξ: configuration not given here. X5 = CCc1c2c(nc3ccc(OC(=O)CCCCn4cc(CCCC(=O)NCCCOCCOCCOCCSCN*)nn4)cc13)-c1cc3c(c(=O)n1C2)COC(=O)[C@]3(O)CC; X4 = CC(O)CC(N[*:1])C(=O)[*:2]; Suc = O=C(CCC(=O)[*:2])[*:1]; ξE = NC(CCC(=O)O)C(=O)O; ξD = NC(CC(=O)O)C(=O)O; ξK = NCCCCC(N)C(=O)O; ξT = CC(O)C(N)C(=O)O; ξDap = NCC(N)C(=O)O; ξP = O=C(O)C1CCCN1; ξA = CC(N)C(=O)O

Columns and labels:
[1] = Evaluation of solubility in water; assay type: physicochemical; settings: at 1 mg/mL
Protocol: 25 mg of SN38-linker A-MiniAp4 were dissolved in H2O, showing a completely transparent solution. This means that SN38-linker A-MiniAp4 has a solubility in water higher than 5 mg/mL, more than 400-fold the solubility in water described for SN38 (Mol. Pharmaceutics, 2016, 13, 379-390).

[2] = system: patient-derived xenograft of neuroblastoma HSJD-NB-013; settings: 6 doses of 100 mg/kg intravenous at days 1, 2, 3, 4, 5 and 8; one mouse, two tumors; until day 44

CCc1c2c(nc3ccc(OC(=O)CCCCn4cc(CCCC(=O)NCCCOCCOCCOCCSCNC(=O)CCC(=O)NC5CNC(=O)CC(C(N)=O)NC(=O)C(CC(C)O)NC(=O)C(C)NC(=O)C(C(C)O)NC(=O)C(CCC(=O)O)NC(=O)C6CCCN6C(=O)C(C)NC(=O)C(CCCCN)NC5=O)nn4)cc13)-c1cc3c(c(=O)n1C2)COC(=O)[C@]3(O)CC (some centres unmarked) [G2B-003 (Ic)] ({X5-Suc}-[ξDap][ξK][ξA][ξP][ξE][ξT][ξA][X4][ξD]-NH2; lactam 1-9)
solubility in water [1]: good solubility
antitumor response (tumor volume) [2]: measurable and long lasting antitumor response
